Measurements published in patent US12723255B2, “Herbicide tolerance genes and methods of use thereof” (priority 2014, dated 2026).

What was measured:
[1] = assay type: physicochemical; details: buffer
Method in brief: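 Thermal shift assay: purified enzyme in 30 mM Tris pH7.5, 150 mM NaCl, with or without 50 uM Fe2+ and 1.0 mM aKG. Unfolding followed by SYPRO orange fluorescence from 10° C. to 95° C. in 0.5° C. steps; melting temperature (T1/2) taken from the curve.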

[2] = enzyme activity assay at 23° C. with purified enzyme; assay type: biochemical
Procedure: The enzyme activity of MON-HT protein variants with haloxyfop, fenoxaprop, fluazifop, and dichlorprop as substrates was determined using the enzyme activity assay conducted at 23° C. with purified enzyme. The activity was recorded as the maximum activity as a percentage of the wild-type enzyme's activity, which was set at 100%.

[3] = test system: F1 hybrid maize plants; assay: efficacy field trial for quizalofop-P tolerance and clethodim sensitivity; assay type: in vivo; details: scale 0 to 100
Procedure: (§1) Separate trait efficacy field trials for quizalofop-P and 2,4-D were conducted at two locations cach with F1 hybrid transgenic plants produced by crossing an inbred plant containing maize event MON89034 with an R1 plant containing MON-HT55 (with a CTP), MON-HTI (with or without a CTP), MON-HT2 (with or without a CTP), MON-HT3 (with a CTP), MON-HT4 (with a CTP), MON-HT5 (with a CTP), MON-HT6 (with a CTP), or MON-HT7 (with a CTP). Transgenic F1 hybrid plants containing maize events NK603×MON89034 were used for comparison as a control.
In the efficacy field trial for quizalofop-P tolerance and clethodim sensitivity, one of four herbicide treatments was used: (1) quizalofop-P (Assure II) at 0.32 lb ai/acre (4×) plus 0.25% v/v non-ionic surfactant (NIS) applied at VE-V2 growth stage followed by the same at V4 growth stage followed by the same at V8 growth stage; (2) quizalofop-P at 0.64 lb ai/acre (8×) plus 0.25% v/v NIS applied at VE to V2 growth stage followed by the same at V4 growth stage followed by the same at V8 growth stage; (3) quizalofop-P at 1.28 lb ai/acre (16×) plus 0.25% v/v NIS applied at VE to V2 growth stage followed by the same at V4 growth stage followed by the same at V8growth stage; or (4) clethodim at 0.25 lb ai/acre (1×) plus 0.25% v/v NIS applied at V8 growth stage. Plots were visually rated 10-14 days after application for crop injury on a scale of 0 to 100with “0” being none and “100” being complete crop destruction. Tables 14 and 15 show the average injury ratings after herbicide application at V4 or V8 growth stage, respectively.

[4] = test system: F1 hybrid maize plants; assay: efficacy field trial for 2,4-D tolerance; assay type: in vivo; details: scale 0 to 100, with CTP unless label says no CTP
Procedure: as §1
In the efficacy field trial for 2,4-D tolerance, one of four herbicide treatments was used: (1) 2,4-D amine at 2 lb ac/acre (2×) plus 0.25% v/v non-ionic surfactant (NIS) applied to VE to V2 followed by V4 followed by V8; (2) 2,4-D amine at 4 lb ac/acre (4×) plus 0.25% v/v NIS applied to VE to V2 followed by V4 followed by V8; (3) 2,4-D amine at 8 lb ac/acre (8×) plus 0.25% v/v NIS applied to VE to V2 followed by V4 followed by V8 maize; or (4) 2,4-D amine at 16 lb ac/acre (16×) plus 0.25% v/v NIS applied to VE to V2 followed by V4 followed by V8. Plots were visually rated as above. Tables 14 and 15 show the average injury ratings after herbicide application at V4 or V8 growth stage, respectively.

[5] = 0.32 lb ai/acre at VE-V2, V4, V8, with CTP unless label says no CTP
[6] = 0.64 lb ai/acre at VE-V2, V4, V8, with CTP unless label says no CTP
[7] = 1.28 lb ai/acre at VE-V2, V4, V8, with CTP unless label says no CTP

B1: MON-HT3: engineered oxygenase protein, amino acid sequence SEQ ID NO:22 (protein)
chain: MHAALSPLSQRFERIAVQPLTGVLGAEITGVDLREPLDDSTWNEILDAFHTYQVIYFPGQAITNEQHIAFSRRFGPVDPVPLLKSIEGYPEVQMIRREANESGRVIGDDWHTDSTFLDAPPAAVVMYAKEVPPYGGDTLFASMYTAWETLSPTMQATIEGLNVVHSATRVFGSLYQAQNRRFSNTSVKVMDVDAGDRETVHPLVVTHPETGRKGLYVNQVYCQRIEGMSEKESEPLLSFLFAHATKPEFTCRVRWQEGQVLVWDNLCTQHFAVPDYAGKFRYLTRTTVGGVRPAR
T1/2, temperature where 50% of the protein was unfolded, Buffer plus Fe2+ and aKG [1]: 48 °C | T1/2, temperature where 50% of the protein was unfolded, Buffer ([1]; pH 7.5): 46 °C | maximum activities for all four substrates compared with the wild-type enzyme ([2]; haloxyfop, fenoxaprop, fluazifop and dichlorprop): lower than, or equal to | maximum activity as a percentage of the wild-type enzyme's activity, Haloxyfop ([2]; purified enzyme, wild-type set at 100%): 67% | maximum activity as a percentage of the wild-type enzyme's activity, Dichlorprop ([2]; wild-type set at 100%): 100% | maximum activity as a percentage of the wild-type enzyme's activity, Fenoxaprop ([2]; wild-type set at 100%): 83% | maximum activity as a percentage of the wild-type enzyme's activity, Fluazifop ([2]; wild-type set at 100%): 60% | average injury rating, V4 Growth Stage, 4x Quizalofop [3, 5]: 0.8 | average injury rating, V8 Growth Stage, 4x Quizalofop [3, 5]: 2.5 | average injury rating, V4 Growth Stage, 8x Quizalofop [3, 6]: 0.0 | average injury rating, V8 Growth Stage, 8x Quizalofop [3, 6]: 2.0 | average injury rating, V4 Growth Stage, 16x Quizalofop [3, 7]: 4.3 | average injury rating, V8 Growth Stage, 16x Quizalofop [3, 7]: 6.0 | average injury rating, V8 Growth Stage, 1x Clethodim ([3]; clethodim 0.25 lb ai/acre at V8, volunteer control): 94.5 | average injury rating, V4 Growth Stage, 2x 2,4-D ([4]; 2 lb ae/acre at VE-V2, V4, V8): 3.8 | average injury rating, V8 Growth Stage, 2x 2,4-D ([4]; 2 lb ae/acre at VE-V2, V4, V8): 5.5 | average injury rating, V4 Growth Stage, 4x 2,4-D ([4]; 4 lb ae/acre at VE-V2, V4, V8): 6.3 | average injury rating, V8 Growth Stage, 4x 2,4-D ([4]; 4 lb ae/acre at VE-V2, V4, V8): 5.5 | average injury rating, V4 Growth Stage, 8x 2,4-D ([4]; 8 lb ae/acre at VE-V2, V4, V8): 8.8 | average injury rating, V8 Growth Stage, 8x 2,4-D ([4]; 8 lb ae/acre at VE-V2, V4, V8): 11.3 | average injury rating, V4 Growth Stage, 16x 2,4-D ([4]; 16 lb ae/acre at VE-V2, V4, V8): 11.3 | average injury rating, V8 Growth Stage, 16x 2,4-D ([4]; 16 lb ae/acre at VE-V2, V4, V8): 13.8
